Assay results as given in patent publication US20200283521A1 (GRANULAR THERAPEUTICS, published 2020).
Positions count from the first letter of the chain named. Read-outs that look alike come from different tables or passages of the source. Values belong to the binder of their own block, whether it stands above or below them.

How the values were obtained:
[1] = molecular target: T1, SLMAP (human, UniProt Q14BN4); experiment: cell array, transfected fixed HEK293 cells
T1 construct: expressed in transfected HEK293 cells
T1 sequence (looked up): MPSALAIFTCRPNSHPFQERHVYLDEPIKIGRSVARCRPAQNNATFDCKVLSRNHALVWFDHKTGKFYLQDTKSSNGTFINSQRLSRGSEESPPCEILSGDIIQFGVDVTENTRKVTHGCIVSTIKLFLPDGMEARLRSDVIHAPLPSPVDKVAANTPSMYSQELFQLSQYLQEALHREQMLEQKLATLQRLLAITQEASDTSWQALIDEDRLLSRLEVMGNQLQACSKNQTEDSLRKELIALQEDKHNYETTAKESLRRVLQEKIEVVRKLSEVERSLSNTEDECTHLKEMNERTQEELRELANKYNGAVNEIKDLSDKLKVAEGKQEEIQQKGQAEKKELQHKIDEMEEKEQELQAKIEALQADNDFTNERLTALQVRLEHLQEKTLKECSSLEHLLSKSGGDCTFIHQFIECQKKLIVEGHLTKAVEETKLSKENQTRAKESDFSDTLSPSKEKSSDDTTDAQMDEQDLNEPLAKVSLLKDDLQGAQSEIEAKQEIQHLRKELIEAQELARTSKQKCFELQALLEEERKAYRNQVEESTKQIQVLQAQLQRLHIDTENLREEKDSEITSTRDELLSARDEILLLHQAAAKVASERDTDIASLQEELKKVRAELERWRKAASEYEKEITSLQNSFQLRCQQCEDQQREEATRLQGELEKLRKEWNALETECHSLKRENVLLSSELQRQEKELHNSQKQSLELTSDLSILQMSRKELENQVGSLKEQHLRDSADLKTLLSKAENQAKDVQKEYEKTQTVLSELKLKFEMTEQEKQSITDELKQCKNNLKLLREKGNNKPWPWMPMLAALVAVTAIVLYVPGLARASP
Method: Transfection of all plasmids was confirmed by screening for the co-encoded marker ZS green (FIG. 13A).
Primary hits (duplicate spots) were identified by analysing fluorescence (AF647 and ZsGreenl) on ImageQuant. Vectors encoding all hits were sequenced to confirm their correct identities. […] Slides were analysed as above.

[2] = molecular target: T2, cynomolgus monkey C-KIT-Fc (cynomolgus monkey); experiment: direct titration ELISA on coated C-KIT-Fc, IgG1 format
T2 construct: also called cyno C-KIT-Fc
Method: Direct titration ELISA for second-generation designer IgGs binding to human and cyno C-KIT-Fc proteins.
(§1) To coat Greiner Bio-One High bind ELISA plates, target proteins were diluted to 1 μg/ml in carbonate buffer and added at 100 μl per well, at 4° C., o/n. Coated plates were washed 3× with PBS pH7.4, blocked with 1% BSA in PBS (380 μl/well) for 1 hr at RT, then washed 3× with PBS-Tween 20 (PBST). C-KIT antibodies (100 μl/well; diluted in PBST) were then added and then incubated 1 hr at RT. Plates were then washed 3× with PBST and goat anti-human kappa chain-HRP added (100 μl/well) at RT, for 1 hr. Plates were then washed 3× with PBST and twice with PBS before the addition of 100 μl TMB per well. Reactions were stopped by adding 100 μl 2M H₂SO₄/well and OD was read on a plate reader at 450 nm.

[3] = molecular target: T2, cynomolgus monkey C-KIT-Fc; experiment: as above; remark: listed apart in the source
Method: Direct titration ELISA for IgG binding to human and cyno C-KIT-Fc proteins.
as §1

[4] = molecular target: T3, hCMET-Fc (The natural ectodomain is cleaved by furin after residue 307 into disulfide-linked alpha and beta chains. It is given here as one continuous stretch.); experiment: direct ELISA on coated protein, IgG1
T3 construct: member of the panel m9
T3 chain: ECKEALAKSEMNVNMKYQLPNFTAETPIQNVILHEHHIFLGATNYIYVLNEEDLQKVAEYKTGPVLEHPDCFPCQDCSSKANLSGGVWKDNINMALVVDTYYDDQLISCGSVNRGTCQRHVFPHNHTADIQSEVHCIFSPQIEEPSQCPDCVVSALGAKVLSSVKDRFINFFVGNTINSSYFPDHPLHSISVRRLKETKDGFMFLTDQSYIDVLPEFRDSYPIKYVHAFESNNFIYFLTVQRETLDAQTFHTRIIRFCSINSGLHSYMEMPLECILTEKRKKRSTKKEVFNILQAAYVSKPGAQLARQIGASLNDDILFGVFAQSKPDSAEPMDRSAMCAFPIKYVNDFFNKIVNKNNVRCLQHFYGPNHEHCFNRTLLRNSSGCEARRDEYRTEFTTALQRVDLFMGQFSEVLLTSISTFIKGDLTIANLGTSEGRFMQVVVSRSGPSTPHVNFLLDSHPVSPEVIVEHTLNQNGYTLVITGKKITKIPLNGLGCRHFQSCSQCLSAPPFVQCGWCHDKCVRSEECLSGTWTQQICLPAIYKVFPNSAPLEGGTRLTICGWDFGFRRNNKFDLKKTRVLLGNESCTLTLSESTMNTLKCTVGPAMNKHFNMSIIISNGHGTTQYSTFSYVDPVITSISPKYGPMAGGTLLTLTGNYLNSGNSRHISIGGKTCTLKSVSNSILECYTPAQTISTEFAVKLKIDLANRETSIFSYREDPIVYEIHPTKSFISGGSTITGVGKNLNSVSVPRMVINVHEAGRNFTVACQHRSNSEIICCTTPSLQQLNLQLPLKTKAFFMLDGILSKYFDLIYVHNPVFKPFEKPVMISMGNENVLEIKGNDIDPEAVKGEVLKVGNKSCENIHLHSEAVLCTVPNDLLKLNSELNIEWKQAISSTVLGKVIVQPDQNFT

[5] = molecular target: T4, hTWEAK-Fc (human, UniProt O43508); experiment: direct ELISA on coated protein, IgG1
T4 construct: Fc fusion; member of the panel m9
T4 sequence (looked up): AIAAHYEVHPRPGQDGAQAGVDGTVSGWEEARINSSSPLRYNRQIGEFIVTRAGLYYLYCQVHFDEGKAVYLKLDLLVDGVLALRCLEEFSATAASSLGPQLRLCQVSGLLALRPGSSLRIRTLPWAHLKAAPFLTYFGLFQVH

[6] = molecular target: T5, h4-1BB-Fc; experiment: direct ELISA on coated protein, IgG1
T5 construct: member of the panel m9

[7] = molecular target: T6, hDR6-Fc (human, UniProt O75509); experiment: direct ELISA on coated protein, IgG1
T6 construct: Fc fusion; member of the panel m9
T6 sequence (looked up): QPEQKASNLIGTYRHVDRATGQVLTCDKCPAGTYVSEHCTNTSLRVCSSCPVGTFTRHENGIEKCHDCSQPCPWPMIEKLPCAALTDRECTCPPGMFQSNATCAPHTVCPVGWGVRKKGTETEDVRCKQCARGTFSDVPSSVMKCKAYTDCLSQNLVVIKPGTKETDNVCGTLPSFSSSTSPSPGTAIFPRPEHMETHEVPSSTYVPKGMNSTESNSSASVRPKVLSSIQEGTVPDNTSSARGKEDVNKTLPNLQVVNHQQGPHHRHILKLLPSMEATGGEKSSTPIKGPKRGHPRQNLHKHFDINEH

T5 sequence (chain, as listed by the source limits assumed): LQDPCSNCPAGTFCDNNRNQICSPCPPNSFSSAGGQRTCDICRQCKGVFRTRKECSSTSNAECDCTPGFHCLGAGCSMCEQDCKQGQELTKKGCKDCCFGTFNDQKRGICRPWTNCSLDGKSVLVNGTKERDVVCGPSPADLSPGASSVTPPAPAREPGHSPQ

binding result [1]: no binding (tested: 2 µg/ml)
B1: humanized h37M, human IgG1 (antibody, V domains shown)
VH: QVQLVQSGAEVKKPGASVKLSCKASGYTFTDYYINWVRQAPGKGLEWIARIYPGSGNTYYNEKFKGRATLTADKSTSTAYMQLSSLRSEDTAVYFCARGVYYFDYWGQGTTVTVSS
VL: DIVMTQSPSSLSASVGDRVTITCKASQNVRTNVAWYQQKPGKAPKALIYSASYRYSGVPDRFTGSGSGTDFTLTISSLQPEDFADYFCQQYNSYPRTFGGGTKVEIK
notes: human IgG1; terbium-labelled as the tracer of the HTRF assays; also called C-KIT-h37M; h37M-IgG1

EC50 (read off the curve) [2]: ~0.1 µg/mL
EC50 (read off the curve) [3]: ~0.1 µg/mL
B2: MH5, human IgG1 (antibody, V domains shown)
VH: QVQLVQSGAEVKKPGASVKVSCKASGYTFTDYYMNWVRQAPGQGLEWMGRIYPGSGNTYYAQKFQGRVTMTRDTSTSTVYMELSSLRSEDTAVYYCARGVYYYDYWGQGTLVTVSS
VL: DIQMTQSPSSLSASVGDRVTITCRASQGIRTNLAWFQQKPGKAPKSLIYSASSLQSGVPSRFSGSGSGTDFTLTISSLQPEDFATYYCQQYANYPRTFGGGTKVEIK
notes: IgG1; also called C-KIT-MH5; C-KIT-MHS

binding result [4]: no binding (tested: 1 µg/ml)
binding result [5]: no binding (tested: 1 µg/ml)
binding result [6]: no binding (tested: 1 µg/ml)
binding result [7]: no binding (tested: 1 µg/ml)
B3: MH1, human IgG1 (antibody, V domains shown)
VH: B2 VH
VL: B2 VL with S50A, A92N, N93S
notes: IgG1; also called IgG1-MH1
